Source: patent US20230272029A1, “CO-AGONISTS AT GLP-1 AND GIP RECEPTORS SUITABLE FOR ORAL DELIVERY” (Novo Nordisk A/S, priority 2020, published 2023)
Starred links: 1 amine or outer side, 2 acyl side, 3 side chain; linkers in the order of their positions; H or OH if unused. Non-standard residues stand in square brackets, D forms with d. Groups on a side chain read outwards from the residue. No end group written: not given here. *: point of attachment. C18 diacid = O=C(O)CCCCCCCCCCCCCCCCC(=O)*; C16 diacid = O=C(O)CCCCCCCCCCCCCCC(=O)*; γGlu = O=C(O)[C@H](CCC(=O)[*:2])N[*:1]; εLys = N[C@@H](CCCCN[*:1])C(=O)[*:2]; AEEA = NCCOCCOCC(=O)O; Aib = CC(C)(N)C(=O)O

B1: Compound No. 46 (peptide)
peptide: Y[Aib]EGTFTSDYSILLEEQAAREFIEWLLAGGPSK([εLys-εLys-γGlu-C16 diacid])GAPPPS-OH
B2: Compound No. 5 (peptide)
peptide: Y[Aib]EGTFTSDYSYYLEK([εLys-εLys-γGlu-C18 diacid])QAAQAFVNWLLAGGPSSGAPPPS-OH
modifications: N-terminus assumed
SMILES: CC(C)C[C@H](NC(=O)[C@H](CC(C)C)NC(=O)[C@H](Cc1c[nH]c2ccccc12)NC(=O)[C@H](CC(N)=O)NC(=O)[C@@H](NC(=O)[C@H](Cc1ccccc1)NC(=O)[C@H](C)NC(=O)[C@H](CCC(N)=O)NC(=O)[C@H](C)NC(=O)[C@H](C)NC(=O)[C@H](CCC(N)=O)NC(=O)[C@H](CCCCNC(=O)[C@@H](N)CCCCNC(=O)[C@@H](N)CCCCNC(=O)CC[C@H](NC(=O)CCCCCCCCCCCCCCCCC(=O)O)C(=O)O)NC(=O)[C@H](CCC(=O)O)NC(=O)[C@H](CC(C)C)NC(=O)[C@H](Cc1ccc(O)cc1)NC(=O)[C@H](Cc1ccc(O)cc1)NC(=O)[C@H](CO)NC(=O)[C@H](Cc1ccc(O)cc1)NC(=O)[C@H](CC(=O)O)NC(=O)[C@H](CO)NC(=O)[C@@H](NC(=O)[C@H](Cc1ccccc1)NC(=O)[C@@H](NC(=O)CNC(=O)[C@H](CCC(=O)O)NC(=O)C(C)(C)NC(=O)[C@@H](N)Cc1ccc(O)cc1)[C@@H](C)O)[C@@H](C)O)C(C)C)C(=O)N[C@@H](C)C(=O)NCC(=O)NCC(=O)N1CCC[C@H]1C(=O)N[C@@H](CO)C(=O)N[C@@H](CO)C(=O)NCC(=O)N[C@@H](C)C(=O)N1CCC[C@H]1C(=O)N1CCC[C@H]1C(=O)N1CCC[C@H]1C(=O)N[C@@H](CO)C(=O)O
B3: Compound No. 6 (peptide)
peptide: Y[Aib]EGTFTSDYSIYLEK([εLys-εLys-γGlu-C18 diacid])QAAREFVNWLLAGGPSSGAPPPS-NH2
modifications: N-terminus assumed
SMILES: CC[C@H](C)[C@H](NC(=O)[C@H](CO)NC(=O)[C@H](Cc1ccc(O)cc1)NC(=O)[C@H](CC(=O)O)NC(=O)[C@H](CO)NC(=O)[C@@H](NC(=O)[C@H](Cc1ccccc1)NC(=O)[C@@H](NC(=O)CNC(=O)[C@H](CCC(=O)O)NC(=O)C(C)(C)NC(=O)[C@@H](N)Cc1ccc(O)cc1)[C@@H](C)O)[C@@H](C)O)C(=O)N[C@@H](Cc1ccc(O)cc1)C(=O)N[C@@H](CC(C)C)C(=O)N[C@@H](CCC(=O)O)C(=O)N[C@@H](CCCCNC(=O)[C@@H](N)CCCCNC(=O)[C@@H](N)CCCCNC(=O)CC[C@H](NC(=O)CCCCCCCCCCCCCCCCC(=O)O)C(=O)O)C(=O)N[C@@H](CCC(N)=O)C(=O)N[C@@H](C)C(=O)N[C@@H](C)C(=O)N[C@@H](CCCNC(=N)N)C(=O)N[C@@H](CCC(=O)O)C(=O)N[C@@H](Cc1ccccc1)C(=O)N[C@H](C(=O)N[C@@H](CC(N)=O)C(=O)N[C@@H](Cc1c[nH]c2ccccc12)C(=O)N[C@@H](CC(C)C)C(=O)N[C@@H](CC(C)C)C(=O)N[C@@H](C)C(=O)NCC(=O)NCC(=O)N1CCC[C@H]1C(=O)N[C@@H](CO)C(=O)N[C@@H](CO)C(=O)NCC(=O)N[C@@H](C)C(=O)N1CCC[C@H]1C(=O)N1CCC[C@H]1C(=O)N1CCC[C@H]1C(=O)N[C@@H](CO)C(N)=O)C(C)C
B4: Compound No. 35 (peptide)
peptide: Y[Aib]EGTFTSDYSILLEK([AEEA-AEEA-γGlu-C18 diacid])QAAREFINWLLAGGPSSGAPPPS-OH
B5: Compound No. 4 (peptide)
peptide: Y[Aib]EGTFTSDYSYYLEK([εLys-εLys-γGlu-C18 diacid])QAAQAFVNWLLAGGPSSGAPPPS-NH2
modifications: N-terminus assumed
SMILES: CC(C)C[C@H](NC(=O)[C@H](CC(C)C)NC(=O)[C@H](Cc1c[nH]c2ccccc12)NC(=O)[C@H](CC(N)=O)NC(=O)[C@@H](NC(=O)[C@H](Cc1ccccc1)NC(=O)[C@H](C)NC(=O)[C@H](CCC(N)=O)NC(=O)[C@H](C)NC(=O)[C@H](C)NC(=O)[C@H](CCC(N)=O)NC(=O)[C@H](CCCCNC(=O)[C@@H](N)CCCCNC(=O)[C@@H](N)CCCCNC(=O)CC[C@H](NC(=O)CCCCCCCCCCCCCCCCC(=O)O)C(=O)O)NC(=O)[C@H](CCC(=O)O)NC(=O)[C@H](CC(C)C)NC(=O)[C@H](Cc1ccc(O)cc1)NC(=O)[C@H](Cc1ccc(O)cc1)NC(=O)[C@H](CO)NC(=O)[C@H](Cc1ccc(O)cc1)NC(=O)[C@H](CC(=O)O)NC(=O)[C@H](CO)NC(=O)[C@@H](NC(=O)[C@H](Cc1ccccc1)NC(=O)[C@@H](NC(=O)CNC(=O)[C@H](CCC(=O)O)NC(=O)C(C)(C)NC(=O)[C@@H](N)Cc1ccc(O)cc1)[C@@H](C)O)[C@@H](C)O)C(C)C)C(=O)N[C@@H](C)C(=O)NCC(=O)NCC(=O)N1CCC[C@H]1C(=O)N[C@@H](CO)C(=O)N[C@@H](CO)C(=O)NCC(=O)N[C@@H](C)C(=O)N1CCC[C@H]1C(=O)N1CCC[C@H]1C(=O)N1CCC[C@H]1C(=O)N[C@@H](CO)C(N)=O
B6: Compound No. 45 (peptide)
peptide: Y[Aib]EGTFTSDYSILLEEQAAREFIEWLLAGGPSK([AEEA-AEEA-γGlu-C18 diacid])GAPPPS-OH
B7: Compound No. 7 (peptide)
peptide: Y[Aib]EGTFTSDYSIYLEK([AEEA-AEEA-γGlu-C18 diacid])QAAREFVNWLLAGGPSSGAPPPS-NH2
modifications: N-terminus assumed
SMILES: CC[C@H](C)[C@H](NC(=O)[C@H](CO)NC(=O)[C@H](Cc1ccc(O)cc1)NC(=O)[C@H](CC(=O)O)NC(=O)[C@H](CO)NC(=O)[C@@H](NC(=O)[C@H](Cc1ccccc1)NC(=O)[C@@H](NC(=O)CNC(=O)[C@H](CCC(=O)O)NC(=O)C(C)(C)NC(=O)[C@@H](N)Cc1ccc(O)cc1)[C@@H](C)O)[C@@H](C)O)C(=O)N[C@@H](Cc1ccc(O)cc1)C(=O)N[C@@H](CC(C)C)C(=O)N[C@@H](CCC(=O)O)C(=O)N[C@@H](CCCCNC(=O)COCCOCCNC(=O)COCCOCCNC(=O)CC[C@H](NC(=O)CCCCCCCCCCCCCCCCC(=O)O)C(=O)O)C(=O)N[C@@H](CCC(N)=O)C(=O)N[C@@H](C)C(=O)N[C@@H](C)C(=O)N[C@@H](CCCNC(=N)N)C(=O)N[C@@H](CCC(=O)O)C(=O)N[C@@H](Cc1ccccc1)C(=O)N[C@H](C(=O)N[C@@H](CC(N)=O)C(=O)N[C@@H](Cc1c[nH]c2ccccc12)C(=O)N[C@@H](CC(C)C)C(=O)N[C@@H](CC(C)C)C(=O)N[C@@H](C)C(=O)NCC(=O)NCC(=O)N1CCC[C@H]1C(=O)N[C@@H](CO)C(=O)N[C@@H](CO)C(=O)NCC(=O)N[C@@H](C)C(=O)N1CCC[C@H]1C(=O)N1CCC[C@H]1C(=O)N1CCC[C@H]1C(=O)N[C@@H](CO)C(N)=O)C(C)C
B8: Compound No. 36 (peptide)
peptide: Y[Aib]EGTFTSDYSIILEK([AEEA-AEEA-γGlu-C18 diacid])QAAREFINWLLAGGPSSGAPPPS-OH
modifications: N-terminus assumed
SMILES: CC[C@H](C)[C@H](NC(=O)[C@H](Cc1ccccc1)NC(=O)[C@H](CCC(=O)O)NC(=O)[C@H](CCCNC(=N)N)NC(=O)[C@H](C)NC(=O)[C@H](C)NC(=O)[C@H](CCC(N)=O)NC(=O)[C@H](CCCCNC(=O)COCCOCCNC(=O)COCCOCCNC(=O)CC[C@H](NC(=O)CCCCCCCCCCCCCCCCC(=O)O)C(=O)O)NC(=O)[C@H](CCC(=O)O)NC(=O)[C@H](CC(C)C)NC(=O)[C@@H](NC(=O)[C@@H](NC(=O)[C@H](CO)NC(=O)[C@H](Cc1ccc(O)cc1)NC(=O)[C@H](CC(=O)O)NC(=O)[C@H](CO)NC(=O)[C@@H](NC(=O)[C@H](Cc1ccccc1)NC(=O)[C@@H](NC(=O)CNC(=O)[C@H](CCC(=O)O)NC(=O)C(C)(C)NC(=O)[C@@H](N)Cc1ccc(O)cc1)[C@@H](C)O)[C@@H](C)O)[C@@H](C)CC)[C@@H](C)CC)C(=O)N[C@@H](CC(N)=O)C(=O)N[C@@H](Cc1c[nH]c2ccccc12)C(=O)N[C@@H](CC(C)C)C(=O)N[C@@H](CC(C)C)C(=O)N[C@@H](C)C(=O)NCC(=O)NCC(=O)N1CCC[C@H]1C(=O)N[C@@H](CO)C(=O)N[C@@H](CO)C(=O)NCC(=O)N[C@@H](C)C(=O)N1CCC[C@H]1C(=O)N1CCC[C@H]1C(=O)N1CCC[C@H]1C(=O)N[C@@H](CO)C(=O)O
B9: Compound No. 47 (peptide)
peptide: Y[Aib]EGTFTSDYSILLEEQAAREFIEWLLAGGPSKGAPPPS-OH
modifications: not fully specified (residue 33)

Target: human GLP-1 receptor (human, UniProt P43220 24-463)
Test: cell-based or functional assay

Row | Binder | hGLP-1R, CRE Luc 0% HSA EC50 (pM) | hGLP-1R, CRE Luc 1% HSA EC50 (pM)
1 | B1 | 1.5 pM | 111 pM
2 | B2 | 9.4 pM | 625 pM
3 | B3 | 3.4 pM | 243 pM
4 | B4 | 3 pM | 413 pM
5 | B5 | 6.6 pM | 484 pM
6 | B6 | 3.9 pM | 1580 pM
7 | B7 | 4.2 pM | 513 pM
8 | B8 | 4.7 pM | 414 pM
9 | B9 | 2.1 pM | 154 pM

Target: T1, human GIP receptor (human, UniProt P48546 22-466)
T1 sequence (looked up): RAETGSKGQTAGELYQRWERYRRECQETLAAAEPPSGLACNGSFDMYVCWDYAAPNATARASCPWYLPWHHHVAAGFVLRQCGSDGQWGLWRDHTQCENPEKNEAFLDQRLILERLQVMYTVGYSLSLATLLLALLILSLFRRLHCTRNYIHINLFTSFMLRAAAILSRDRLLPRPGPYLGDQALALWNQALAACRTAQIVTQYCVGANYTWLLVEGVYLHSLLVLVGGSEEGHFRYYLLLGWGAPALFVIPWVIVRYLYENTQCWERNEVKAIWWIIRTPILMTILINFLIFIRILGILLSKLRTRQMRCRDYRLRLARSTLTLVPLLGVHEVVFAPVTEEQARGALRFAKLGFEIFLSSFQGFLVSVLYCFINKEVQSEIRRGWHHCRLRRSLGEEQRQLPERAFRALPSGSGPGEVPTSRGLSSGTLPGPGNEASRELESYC
Test: cell-based or functional assay

Row | Binder | hGIPR, CRE Luc 0% HSA EC50 (pM) | hGIPR, CRE Luc 1% HSA EC50 (pM)
10 | B1 | 1.8 pM | 97 pM
11 | B2 | 14.2 pM | 362 pM
12 | B3 | 18.5 pM | 434 pM
13 | B4 | 5.2 pM | 303 pM
14 | B5 | 8.5 pM | 294 pM
15 | B6 | 3.8 pM | 1220 pM
16 | B7 | 28.7 pM | 687 pM
17 | B8 | 5.5 pM | 356 pM
18 | B9 | 3.1 pM | 156 pM
